From PMC3549491, “Structural Basis of the Intracellular Sorting of the SNARE VAMP7 by the AP3 Adaptor Complex” (Developmental Cell, 2012)

Legend:
VAMP7 longin domain [1] = molecular target: T1, VAMP7 longin domain (UniProt P70280 1-120); experiment: ITC
T1 chain: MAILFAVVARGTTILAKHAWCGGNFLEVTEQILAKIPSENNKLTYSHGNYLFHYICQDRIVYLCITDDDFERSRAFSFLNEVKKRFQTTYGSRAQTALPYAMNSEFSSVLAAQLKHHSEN

[2] = molecular target: VAMP7 longin domain L43S/Y45S (UniProt P70280 1-120, L43S | Y45S); experiment: ITC
VAMP7 longin domain [3] = molecular target: T2, VAMP7 longin domain (UniProt P70280 1-120); experiment: ITC; Microcal Auto-iTC200; VAMP7 longin domain in the cell at 0.15–0.2 mM, GST delta constructs at 0.8–1.2 mM titrated; 50 mM HEPES pH 7.4, 200 mM NaCl, 4 mM ß-mercaptoethanol; conditions: both partners purified
T2 construct: VAMP7 (Ti-VAMP), longin domain; also called VAMP7LD; VAMP longin domain
T2 sequence (looked up): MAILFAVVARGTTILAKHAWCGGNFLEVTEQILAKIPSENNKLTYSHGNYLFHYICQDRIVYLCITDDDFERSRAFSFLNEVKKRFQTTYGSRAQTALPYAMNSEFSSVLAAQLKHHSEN

Binder	Kd (VAMP7 longin domain [1]) [µM]	Kd [2] [µM]	Kd (VAMP7 longin domain [3]) [µM]
PFYIKSSPSPQKRYQDTPGVEHSPSVQIDLSVPLKVPGLPMSDQYVKLE (domain or fragment) [GST δ-adaptin (680–728) I702S/V704S]	> 300	–	–
PFYIKSSPSPQKRYQDTPGVEHIPVVQIDSSVPSKVPGLPMSDQYVKLE (domain or fragment) [GST δ-adaptin (680–728) L709S/L713S]	> 300	–	–
PFYIKSSPSPQKRYQDTPGVEHIPVVQIDLSVPLKVPGLPMSDQYVKLE (domain or fragment, UniProt O14617-5 680-728, looked up, source: Rosetta2(DE3)pLysS, purified (glutathione-Sepharose, Superdex 75)) [GST δ-adaptin (680–728)]	–	> 300	14
